# Laboratory results: IntAct's records for PubMed 25910212
# B1: Cyclin-dependent kinase 4 (Homo sapiens), P11802 (parent)
# chain: MATSRYEPVAEIGVGAYGTVYKARDPHSGHFVALKSVRVPNGGGGGGGLPISTVREVALLRRLEAFEHPNVVRLMDVCATSRTDREIKVTLVFEHVDQDLRTYLDKAPPPGLPAETIKDLMRQFLRGLDFLHANCIVHRDLKPENILVTSGGTVKLADFGLARIYSYQMALTPVVVTLWYRAPEVLLQSTYATPVDMWSVGCIFAEMFRRKPLFCGNSEADQLGKIFDLIGLPPEDDWPRDVSLPRGAFPPRGPRPVQSVVPEMEESGAQLLLEMLTFNPHKRISAFRALQHSYLHKDEGNPE
# B2: Keratin, type II cytoskeletal 1 (Homo sapiens), P04264 (parent)
# chain: MSRQFSSRSGYRSGGGFSSGSAGIINYQRRTTSSSTRRSGGGGGRFSSCGGGGGSFGAGGGFGSRSLVNLGGSKSISISVARGGGRGSGFGGGYGGGGFGGGGFGGGGFGGGGIGGGGFGGFGSGGGGFGGGGFGGGGYGGGYGPVCPPGGIQEVTINQSLLQPLNVEIDPEIQKVKSREREQIKSLNNQFASFIDKVRFLEQQNQVLQTKWELLQQVDTSTRTHNLEPYFESFINNLRRRVDQLKSDQSRLDSELKNMQDMVEDYRNKYEDEINKRTNAENEFVTIKKDVDGAYMTKVDLQAKLDNLQQEIDFLTALYQAELSQMQTQISETNVILSMDNNRSLDLDSIIAEVKAQYEDIAQKSKAEAESLYQSKYEELQITAGRHGDSVRNSKIEISELNRVIQRLRSEIDNVKKQISNLQQSISDAEQRGENALKDAKNKLNDLEDALQQAKEDLARLLRDYQELMNTKLALDLEIATYRTLLEGEESRMSGECAPNVSVSVSTSHTTISGGGSRGGGGGGYGSGGSSYGSGGGSYGSGGGGGGGRGSYGSGGSSYGSGGGSYGSGGGGGGHGSYGSGSSSGGYRGGSGGGGGGSSGGRGSGGGSSGGSIGGRGSSSGGVKSSGGSSSVKFVSTTYSGVTR
# Variants of: B1
# Conditions: with ccnd1_human CCND1, P24385
# Sequence of ccnd1_human CCND1, P24385 (P24385 whole entry): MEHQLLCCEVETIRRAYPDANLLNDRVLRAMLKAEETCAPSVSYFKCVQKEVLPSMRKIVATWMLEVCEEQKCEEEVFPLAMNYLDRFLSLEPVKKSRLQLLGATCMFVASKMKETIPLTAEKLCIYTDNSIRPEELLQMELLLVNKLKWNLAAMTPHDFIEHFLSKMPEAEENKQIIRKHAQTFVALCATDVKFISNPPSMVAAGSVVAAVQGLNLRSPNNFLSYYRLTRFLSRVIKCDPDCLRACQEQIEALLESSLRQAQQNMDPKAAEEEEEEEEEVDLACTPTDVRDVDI
row,Variant,effect of a mutation on the interaction
1,MATSRYEPVAEIGVGAYGTVYKARDPHSGHFVALKSVRVPSGGGGGGGLPISTVREVALLRRLEAFEHPNVVRLMDVCATSRTDREIKVTLVFEHVDQDLRTYLDKAPPPGLPAETIKDLMRQFLRGLDFLHANCIVHRDLKPENILVTSGGTVKLADFGLARIYSYQMALTPVVVTLWYRAPEVLLQSTYATPVDMWSVGCIFAEMFRRKPLFCGNSEADQLGKIFDLIGLPPEDDWPRDVSLPRGAFPPRGPRPVQSVVPEMEESGAQLLLEMLTFNPHKRISAFRALQHSYLHKDEGNPE [N41S],with no effect
2,MATSRYEPVAEIGVGAYGTVYKARDPHSGHFVALKSVRVPNGGGGGGGLPINTVREVALLRRLEAFEHPNVVRLMDVCATSRTDREIKVTLVFEHVDQDLRTYLDKAPPPGLPAETIKDLMRQFLRGLDFLHANCIVHRDLKPENILVTSGGTVKLADFGLARIYSYQMALTPVVVTLWYRAPEVLLQSTYATPVDMWSVGCIFAEMFRRKPLFCGNSEADQLGKIFDLIGLPPEDDWPRDVSLPRGAFPPRGPRPVQSVVPEMEESGAQLLLEMLTFNPHKRISAFRALQHSYLHKDEGNPE [S52N],with no effect

# Variants of: B1
# Conditions: with ccnd3_human CCND3, P30281
# Sequence of ccnd3_human CCND3, P30281 (P30281 whole entry): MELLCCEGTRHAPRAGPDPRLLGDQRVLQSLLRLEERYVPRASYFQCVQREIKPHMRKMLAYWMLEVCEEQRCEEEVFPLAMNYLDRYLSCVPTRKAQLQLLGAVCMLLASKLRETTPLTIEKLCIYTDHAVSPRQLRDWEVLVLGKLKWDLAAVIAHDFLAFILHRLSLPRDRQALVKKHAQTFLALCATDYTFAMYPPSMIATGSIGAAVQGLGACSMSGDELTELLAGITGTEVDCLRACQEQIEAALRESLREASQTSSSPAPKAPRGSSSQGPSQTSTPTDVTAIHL
row,Variant,effect of a mutation on the interaction
1,MATSRYEPVAEIGVGAYGTVYKARDPHSGHFVALKSVRVPSGGGGGGGLPISTVREVALLRRLEAFEHPNVVRLMDVCATSRTDREIKVTLVFEHVDQDLRTYLDKAPPPGLPAETIKDLMRQFLRGLDFLHANCIVHRDLKPENILVTSGGTVKLADFGLARIYSYQMALTPVVVTLWYRAPEVLLQSTYATPVDMWSVGCIFAEMFRRKPLFCGNSEADQLGKIFDLIGLPPEDDWPRDVSLPRGAFPPRGPRPVQSVVPEMEESGAQLLLEMLTFNPHKRISAFRALQHSYLHKDEGNPE [N41S],with no effect
2,MATSRYEPVAEIGVGAYGTVYKARDPHSGHFVALKSVRVPNGGGGGGGLPINTVREVALLRRLEAFEHPNVVRLMDVCATSRTDREIKVTLVFEHVDQDLRTYLDKAPPPGLPAETIKDLMRQFLRGLDFLHANCIVHRDLKPENILVTSGGTVKLADFGLARIYSYQMALTPVVVTLWYRAPEVLLQSTYATPVDMWSVGCIFAEMFRRKPLFCGNSEADQLGKIFDLIGLPPEDDWPRDVSLPRGAFPPRGPRPVQSVVPEMEESGAQLLLEMLTFNPHKRISAFRALQHSYLHKDEGNPE [S52N],with no effect

# Variants of: B1
# Conditions: with ccnd2_human CCND2, P30279
# Sequence of ccnd2_human CCND2, P30279 (P30279 whole entry): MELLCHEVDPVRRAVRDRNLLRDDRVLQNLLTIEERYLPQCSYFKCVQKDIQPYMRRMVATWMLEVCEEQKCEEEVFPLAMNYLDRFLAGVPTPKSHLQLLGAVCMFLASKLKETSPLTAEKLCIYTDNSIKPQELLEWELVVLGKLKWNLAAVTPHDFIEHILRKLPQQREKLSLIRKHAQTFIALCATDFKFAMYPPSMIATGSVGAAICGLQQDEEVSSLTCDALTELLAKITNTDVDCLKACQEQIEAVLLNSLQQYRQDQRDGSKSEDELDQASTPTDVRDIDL
row,Variant,effect of a mutation on the interaction
1,MATSRYEPVAEIGVGAYGTVYKARDPHSGHFVALKSVRVPSGGGGGGGLPISTVREVALLRRLEAFEHPNVVRLMDVCATSRTDREIKVTLVFEHVDQDLRTYLDKAPPPGLPAETIKDLMRQFLRGLDFLHANCIVHRDLKPENILVTSGGTVKLADFGLARIYSYQMALTPVVVTLWYRAPEVLLQSTYATPVDMWSVGCIFAEMFRRKPLFCGNSEADQLGKIFDLIGLPPEDDWPRDVSLPRGAFPPRGPRPVQSVVPEMEESGAQLLLEMLTFNPHKRISAFRALQHSYLHKDEGNPE [N41S],with no effect
2,MATSRYEPVAEIGVGAYGTVYKARDPHSGHFVALKSVRVPNGGGGGGGLPINTVREVALLRRLEAFEHPNVVRLMDVCATSRTDREIKVTLVFEHVDQDLRTYLDKAPPPGLPAETIKDLMRQFLRGLDFLHANCIVHRDLKPENILVTSGGTVKLADFGLARIYSYQMALTPVVVTLWYRAPEVLLQSTYATPVDMWSVGCIFAEMFRRKPLFCGNSEADQLGKIFDLIGLPPEDDWPRDVSLPRGAFPPRGPRPVQSVVPEMEESGAQLLLEMLTFNPHKRISAFRALQHSYLHKDEGNPE [S52N],with no effect

# Variants of: B1
# Conditions: with cdn2b_human CDKN2B
row,Variant,effect of a mutation on the interaction
1,MATSRYEPVAEIGVGAYGTVYKARDPHSGHFVALKSVRVPSGGGGGGGLPISTVREVALLRRLEAFEHPNVVRLMDVCATSRTDREIKVTLVFEHVDQDLRTYLDKAPPPGLPAETIKDLMRQFLRGLDFLHANCIVHRDLKPENILVTSGGTVKLADFGLARIYSYQMALTPVVVTLWYRAPEVLLQSTYATPVDMWSVGCIFAEMFRRKPLFCGNSEADQLGKIFDLIGLPPEDDWPRDVSLPRGAFPPRGPRPVQSVVPEMEESGAQLLLEMLTFNPHKRISAFRALQHSYLHKDEGNPE [N41S],with no effect
2,MATSRYEPVAEIGVGAYGTVYKARDPHSGHFVALKSVRVPNGGGGGGGLPINTVREVALLRRLEAFEHPNVVRLMDVCATSRTDREIKVTLVFEHVDQDLRTYLDKAPPPGLPAETIKDLMRQFLRGLDFLHANCIVHRDLKPENILVTSGGTVKLADFGLARIYSYQMALTPVVVTLWYRAPEVLLQSTYATPVDMWSVGCIFAEMFRRKPLFCGNSEADQLGKIFDLIGLPPEDDWPRDVSLPRGAFPPRGPRPVQSVVPEMEESGAQLLLEMLTFNPHKRISAFRALQHSYLHKDEGNPE [S52N],with no effect

# Variants of: B1
# Conditions: with cdn2c_human CDKN2C
row,Variant,effect of a mutation on the interaction
1,MATSRYEPVAEIGVGAYGTVYKARDPHSGHFVALKSVRVPSGGGGGGGLPISTVREVALLRRLEAFEHPNVVRLMDVCATSRTDREIKVTLVFEHVDQDLRTYLDKAPPPGLPAETIKDLMRQFLRGLDFLHANCIVHRDLKPENILVTSGGTVKLADFGLARIYSYQMALTPVVVTLWYRAPEVLLQSTYATPVDMWSVGCIFAEMFRRKPLFCGNSEADQLGKIFDLIGLPPEDDWPRDVSLPRGAFPPRGPRPVQSVVPEMEESGAQLLLEMLTFNPHKRISAFRALQHSYLHKDEGNPE [N41S],with no effect
2,MATSRYEPVAEIGVGAYGTVYKARDPHSGHFVALKSVRVPNGGGGGGGLPINTVREVALLRRLEAFEHPNVVRLMDVCATSRTDREIKVTLVFEHVDQDLRTYLDKAPPPGLPAETIKDLMRQFLRGLDFLHANCIVHRDLKPENILVTSGGTVKLADFGLARIYSYQMALTPVVVTLWYRAPEVLLQSTYATPVDMWSVGCIFAEMFRRKPLFCGNSEADQLGKIFDLIGLPPEDDWPRDVSLPRGAFPPRGPRPVQSVVPEMEESGAQLLLEMLTFNPHKRISAFRALQHSYLHKDEGNPE [S52N],with no effect

# Variants of: B2
# Conditions: with nup62_human NUP62, P37198
# Sequence of nup62_human NUP62, P37198 (P37198 whole entry): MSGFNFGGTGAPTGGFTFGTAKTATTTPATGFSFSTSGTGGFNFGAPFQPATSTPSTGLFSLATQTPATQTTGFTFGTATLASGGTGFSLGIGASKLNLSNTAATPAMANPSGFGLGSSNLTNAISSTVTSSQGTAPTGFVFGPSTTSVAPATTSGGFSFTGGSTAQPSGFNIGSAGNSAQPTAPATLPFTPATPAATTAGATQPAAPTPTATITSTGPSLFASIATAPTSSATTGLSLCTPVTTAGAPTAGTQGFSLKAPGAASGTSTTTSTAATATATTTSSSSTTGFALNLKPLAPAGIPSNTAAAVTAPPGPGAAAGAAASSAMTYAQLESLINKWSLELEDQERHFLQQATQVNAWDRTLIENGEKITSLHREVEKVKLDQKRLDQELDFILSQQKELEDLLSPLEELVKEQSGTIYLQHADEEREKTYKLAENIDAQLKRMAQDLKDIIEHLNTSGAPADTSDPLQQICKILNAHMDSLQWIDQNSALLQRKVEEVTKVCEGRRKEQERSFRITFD
row,Variant,effect of a mutation on the interaction
1,L161P,causing an interaction

# Variants of: B2
# Conditions: with KRT15, P19012
# Sequence of KRT15, P19012 (P19012 whole entry): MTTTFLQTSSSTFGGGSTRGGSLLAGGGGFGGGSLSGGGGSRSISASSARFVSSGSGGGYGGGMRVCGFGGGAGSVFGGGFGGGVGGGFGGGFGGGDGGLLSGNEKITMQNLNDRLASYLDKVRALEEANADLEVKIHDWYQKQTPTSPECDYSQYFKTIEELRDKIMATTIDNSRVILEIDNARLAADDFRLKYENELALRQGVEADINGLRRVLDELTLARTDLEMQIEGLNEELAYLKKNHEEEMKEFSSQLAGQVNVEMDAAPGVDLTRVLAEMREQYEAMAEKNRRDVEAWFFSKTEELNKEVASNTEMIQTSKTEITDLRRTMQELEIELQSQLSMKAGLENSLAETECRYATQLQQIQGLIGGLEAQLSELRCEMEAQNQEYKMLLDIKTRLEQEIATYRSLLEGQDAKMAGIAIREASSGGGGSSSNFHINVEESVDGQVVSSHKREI
row,Variant,effect of a mutation on the interaction
1,L161P,causing an interaction

# Variants of: B2
# Conditions: with kt33b_human KRT33B
row,Variant,effect of a mutation on the interaction
1,L161P,causing an interaction

# Variants of: B2
# Conditions: with goga2_human GOLGA2, Q08379
# Sequence of goga2_human GOLGA2, Q08379 (Q08379 whole entry): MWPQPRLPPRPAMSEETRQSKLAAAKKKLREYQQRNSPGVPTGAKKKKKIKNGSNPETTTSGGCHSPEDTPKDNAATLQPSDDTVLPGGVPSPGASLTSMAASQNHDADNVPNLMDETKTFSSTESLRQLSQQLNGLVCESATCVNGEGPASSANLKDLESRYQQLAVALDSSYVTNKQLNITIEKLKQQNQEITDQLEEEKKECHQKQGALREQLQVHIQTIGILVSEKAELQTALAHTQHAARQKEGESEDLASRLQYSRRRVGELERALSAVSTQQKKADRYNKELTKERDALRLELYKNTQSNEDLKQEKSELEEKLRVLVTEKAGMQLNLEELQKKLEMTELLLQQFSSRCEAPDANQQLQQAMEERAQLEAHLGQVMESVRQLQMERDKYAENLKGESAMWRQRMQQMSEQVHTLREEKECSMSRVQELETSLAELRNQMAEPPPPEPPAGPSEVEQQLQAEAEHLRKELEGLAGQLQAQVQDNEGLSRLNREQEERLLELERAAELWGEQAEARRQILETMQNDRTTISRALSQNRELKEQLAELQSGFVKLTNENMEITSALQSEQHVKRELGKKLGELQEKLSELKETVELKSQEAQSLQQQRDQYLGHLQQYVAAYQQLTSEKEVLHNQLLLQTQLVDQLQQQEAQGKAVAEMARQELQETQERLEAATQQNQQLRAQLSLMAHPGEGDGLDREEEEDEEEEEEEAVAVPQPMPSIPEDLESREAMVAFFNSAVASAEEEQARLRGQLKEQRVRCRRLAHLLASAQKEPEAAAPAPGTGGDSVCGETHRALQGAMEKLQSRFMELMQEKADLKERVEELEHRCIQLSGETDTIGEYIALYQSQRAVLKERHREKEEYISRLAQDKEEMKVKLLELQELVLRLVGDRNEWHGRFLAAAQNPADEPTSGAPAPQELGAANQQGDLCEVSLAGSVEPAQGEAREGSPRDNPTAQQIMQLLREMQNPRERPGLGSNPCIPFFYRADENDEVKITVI
row,Variant,effect of a mutation on the interaction
1,L161P,causing an interaction

# Variants of: B2
# Conditions: with KRT15, P19012
# Remark: another data set of the same source
row,Variant,effect of a mutation on the interaction
1,L161P,with no effect

# Variants of: B2
# Conditions: with kt33b_human KRT33B
# Remark: another data set of the same source
row,Variant,effect of a mutation on the interaction
1,L161P,with no effect
